Patent publication US11391726B2, “MoT cells as a therapeutic screening tool for regulatory t-cell activity” (ARIZONA BOARD OF REGENTS ON BEHALF OF ARIZONA STATE …, priority 2018, dated 2022)

How the values were obtained:
MoT cells = experiment: CFSE suppression assay: Mabs pre-incubated with MoT cells, then co-cultured with CD3/28-stimulated CD4+ PBMC; assay type: cell-based, human; conditions: Mab pre-incubated with MoT cells 30 minutes, CD4+ PBMC:MoT ratio 1:1/2, CFSE flow cytometry (FIGS. 5D, 5F, 5H)
Method: (§1) Suppression assays. After IRB approval at Arizona State University (protocol #0601000548), peripheral blood was collected from healthy donors. After Ficoll-Paque Plus gradient separation of the buffy coat, CD4+ cells were purified using EasySep Human CD4^+ T Cell Isolation Kit (Catalog #17952 from Stemcell Technologies). Cells were allowed to rest overnight in cIMDM at 37° C. prior to labeling with CFSE (Carboxyfluorescein succinimidyl ester, from Cayman Chemica cat #10009853) dye to track cell divisions. The following day, CD4^+ T cells were counted, stained with CFSE, washed in PBS and then plated in IMDM with 10% FBS at 3×10^5 cells per well in a 48-well plate coated with OKT3 antibody at 5.0 ug/mL for 2 hours at 37° C. then washed twice in PBS before adding soluble co-stimulatory anti-CD28 (eBioscience clone CD28.6) at 5.0 ug/mL final concentration.
In some studies MoT and Jurkat cells were labeled with Cell Trace FarRed dye (Thermofisher) to gate MoT and Jurkat cells away from CD4^+ PBMC in flow cytometry analysis. Two-fold serial dilutions of MoT and Jurkat cells were added to CD4^+ PBMC, starting at 1.5×10^5 MoT and Jurkat cells (1:1/2 ratio CD4^+ T cells:tumor cells). Final volume per well was 1 mL. Cells were incubated for 5 days. […]

CD4+ PBMC = experiment: CFSE proliferation assay: Mabs co-incubated with CD3/28-stimulated CD4+ PBMC without MoT cells; assay type: cell-based, human; conditions: no MoT cells (FIGS. 5C, 5E, 5G)
Method: as §1
(FIG. 5A) Unstimulated PBMC. (FIG. 5B) CD3/28-stimulated CD4^+ PBMC cell division without MoT cells. (FIG. 5C) Anti-GITR, (FIG. 5E) Anti-CCR4 mogamulizumab, and (FIG. 5G) anti-PDL-1 (atezolizumab) co-incubated with PBMCs. (FIG. 5D) Anti-GITR, (FIG. 5F) anti-CCR4 (mogamulizumab), and (FIG. 5H) anti-PDL-1 (atezolizumab) co-incubated with PBMCs and MoT cells (1:½ ratio).

B1: mogamulizumab (antibody, chains of the INN, looked up, V domains shown)
VH: EVQLVESGGDLVQPGRSLRLSCAASGFIFSNYGMSWVRQAPGKGLEWVATISSASTYSYYPDSVKGRFTISRDNAKNSLYLQMNSLRVEDTALYYCGRHSDGNFAFGYWGQGTLVTVSS
VL: DVLMTQSPLSLPVTPGEPASISCRSSRNIVHINGDTYLEWYLQKPGQSPQLLIYKVSNRFSGVPDRFSGSGSGTDFTLKISRVEAEDVGVYYCFQGSLLPWTFGQGTKVEIK
B1 was tested, and the “reversal of MoT cell-mediated suppression of CD4+ PBMC proliferation” value (MoT cells) was “None of the checkpoint inhibitor Mabs including anti-GITR reversed MoT cell-mediated suppression”, the “reversal of MoT cell-mediated suppression of CD4+ PBMC proliferation” value (MoT cells; listed as ant-CCR4) was “did not attenuate MoT Treg suppressive activity” and the “suppression or inhibition of CD4+ PBMC proliferation by the Mab alone” value (CD4+ PBMC) was “do not suppress or inhibit”.
